The target in assay [1] is TβRII-GFP (UniProt P37173). The assay is described as follows: AFM single-molecule force spectroscopy; TGF-β1-modified AFM tips on live HeLa cells expressing TβRII-GFP; contact mode, room temperature, loading rate 1.0 x 10^4 pN/s; untreated cells.
Assay [2] concerns the target TβRII-GFP (UniProt P37173). The assay is described as follows: AFM single-molecule force spectroscopy; TGF-β1-modified AFM tips on live HeLa cells expressing TβRII-GFP; contact mode, room temperature, loading rate 1.0 x 10^4 pN/s; cells treated with 50 μM metformin.

Chain of TβRII-GFP (P37173 23-567): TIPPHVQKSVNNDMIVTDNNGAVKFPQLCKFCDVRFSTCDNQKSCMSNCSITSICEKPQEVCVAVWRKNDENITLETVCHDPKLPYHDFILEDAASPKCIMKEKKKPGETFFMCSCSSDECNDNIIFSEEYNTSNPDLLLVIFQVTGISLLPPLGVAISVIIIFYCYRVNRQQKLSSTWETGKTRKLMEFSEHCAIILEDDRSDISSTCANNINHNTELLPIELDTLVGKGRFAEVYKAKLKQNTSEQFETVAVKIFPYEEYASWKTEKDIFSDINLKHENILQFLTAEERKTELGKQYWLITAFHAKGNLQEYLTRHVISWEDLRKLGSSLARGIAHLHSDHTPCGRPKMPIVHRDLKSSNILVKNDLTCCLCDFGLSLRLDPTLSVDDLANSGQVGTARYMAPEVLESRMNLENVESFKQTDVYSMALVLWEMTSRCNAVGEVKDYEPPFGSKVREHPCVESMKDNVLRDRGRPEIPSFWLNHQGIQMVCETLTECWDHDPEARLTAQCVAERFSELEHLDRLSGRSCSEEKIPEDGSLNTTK

In the assay with TβRII-GFP [1], Recombinant human TGF-β1 (ligand) registered a binding force (averaged histogram peak value) of 49.5 pN and a binding probability of 21.7%. In the assay with TβRII-GFP [2], this substance displayed a binding force (averaged histogram peak value), with 50 μM metformin of 49.3 pN and a binding probability, with 50 μM metformin of 9.9%.

Source of the values: PMC4923858.
